In US20190055314A1 (ADAGENE, published 2019):

Tests used:
[1] = target: T1, human CD137-His6 (Sino Biological #10041-H08H) (human, UniProt Q07011 24-186); assay: SPR Biacore, IgG
T1 construct: Bought; also called human CD137 protein; not shown: His6 tag

[2] = target: T2, full-length mouse CD137 on the cell surface (mouse, UniProt P20334 24-178); assay: flow cytometry, yeast display [Cont.]
T2 sequence: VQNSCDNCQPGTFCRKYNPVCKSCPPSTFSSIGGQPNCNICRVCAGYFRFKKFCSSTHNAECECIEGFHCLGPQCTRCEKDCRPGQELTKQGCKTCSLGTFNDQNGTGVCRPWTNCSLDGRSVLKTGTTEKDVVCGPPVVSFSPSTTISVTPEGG

[3] = target: T3, mouse CD137 protein (Biacore) (mouse, UniProt P20334 24-178, limits assumed); assay: SPR Biacore
T3 construct: Construct used as SPR analyte not described
T3 sequence: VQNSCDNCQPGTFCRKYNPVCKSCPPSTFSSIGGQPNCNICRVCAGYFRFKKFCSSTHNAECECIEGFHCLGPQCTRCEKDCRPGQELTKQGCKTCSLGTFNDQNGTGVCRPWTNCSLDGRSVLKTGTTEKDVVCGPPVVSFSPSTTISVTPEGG

Hu_CRD3 = target: T4, Hu_CRD3 (human, limits assumed); assay: flow cytometry, yeast display [Cont.]
T4 construct: also called human CD137 CRD3
T4 chain: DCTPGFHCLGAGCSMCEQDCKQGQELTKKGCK

[4] = target: T2, full-length mouse CD137 on the cell …; assay: flow cytometry, HEK293F cells expressing CD137 or mutant
[5] = target: T5, rat CD137 on the cell surface (rat, UniProt Q4W8J3 24-258); assay: flow cytometry, HEK293F cells expressing CD137
T5 sequence: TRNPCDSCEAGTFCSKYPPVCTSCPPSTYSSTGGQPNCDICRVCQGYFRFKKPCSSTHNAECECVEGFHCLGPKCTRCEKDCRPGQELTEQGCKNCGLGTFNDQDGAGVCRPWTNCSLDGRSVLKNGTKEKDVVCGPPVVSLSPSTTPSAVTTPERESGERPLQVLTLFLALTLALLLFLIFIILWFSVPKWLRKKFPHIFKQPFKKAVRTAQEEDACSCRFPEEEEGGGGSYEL

[6] = target: T6, mouse CD137 fused with human FC fragment (mouse, UniProt P20334 24-178, limits assumed); assay: ELISA, coated CD137-Fc
T6 construct: also called mouse CD137-Fc; not shown: human Fc fragment
T6 sequence: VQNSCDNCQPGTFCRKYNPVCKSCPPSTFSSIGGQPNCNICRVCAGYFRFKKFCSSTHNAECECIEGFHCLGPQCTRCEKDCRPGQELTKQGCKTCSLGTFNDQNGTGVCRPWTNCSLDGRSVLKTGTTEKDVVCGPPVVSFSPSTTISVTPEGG

B1: AG10080 (antibody, human IgG4 S228P, kappa, V domains shown)
VH: EVQLVESGGGLVQPGGSLRLSCAASGYSISSGYYWDWIRQAPGKGLEWVSSISGDGDTTYYADSVKGRFTISRDNSKNTLYLQLNSLRAEDTAVYYCAREYYGYGYALDYWGQGTLVTVSS
VL: DIQLTQSPSSLSASVGDRVTITCRASQGISSYLAWYQQKPGKAPKLLIYDASSLESGVPSRFSGSGSGTDFTLTISSLQPEDFATYYCQQYYSTPLTFGQGTKVEIKR
notes: also called IgG of Fab 4217
Kd [1]: 10 nM | koff [1]: 0.012 s⁻¹ | kon [1]: 1.2e+06 M⁻¹ s⁻¹

B2: AG10085 (antibody, human IgG4 S228P, kappa, V domains shown)
VH: EVQLVESGGGLVQPGGSLRLSCAASGFSLSTSGVGVGWIRQAPGKGLEWVSGISGAGDSTYYADSVKGRFTISRDNSKNTLYLQLNSLRAEDTAVYYCAREGSDTVLGDWFAYWGQGTLVTVSS
VL: DIQLTQSPSSLSASVGDRVTITCRASQDIRSYLAWYQQKPGKAPKLLIYDASNRATGIPSRFSGSGSGTDFTLTISSLQPEDFATYYCQQGYSIWTFGQGTKVEIKR
notes: also called IgG of Fab 5367
Kd [1]: 54 nM | koff [1]: 0.0079 s⁻¹ | kon [1]: 150000 M⁻¹ s⁻¹

B3: AG10124 (antibody, human IgG4 S228P, kappa, V domains shown)
VH: EVQLVESGGGLVQPGGSLRLSCAASGFSLSTGGVGVAWIRQAPGKGLEWVSSISGYGSTTYYADSVKGRFTISRDNSKNTLYLQLNSLRAEDTAVYYCAREGSDAVLGDWFGYWGQGTLVTVSS
VL: DIQLTQSPSSLSASVGDRVTITCQASQDITTYLAWYQQKPGKAPKLLIYDASNRATGIPSRFSGSGSGTDFTLTISSLQPEDFATYYCQQGYYLWTFGQGTKVEIKR
notes: also called IgG of Fab 5302
Kd [1]: 6 nM | koff [1]: 0.003 s⁻¹ | kon [1]: 500000 M⁻¹ s⁻¹

B4: AG10062 (antibody, human IgG4 S228P, kappa, V domains shown)
VH: EVQLVESGGGLVQPGGSLRLSCAASGYSISSGYHWAWIRQAPGKGLEWIGEIYHSGSTYYSPSLKSRVTISRDNSKNTLYLQLNSLRAEDTAVYYCARSPYYYGVFDYWGQGTLVTVSS
VL: DIQLTQSPSSLSASVGDRVTITCSASSRVGSVYWYQQKPGKAPKLLIYDASNLETGVPSRFSGSGSGTDFTLTISSLQPEDFATYYCQQYTHDPVTFGQGTKVEIKR
notes: also called IgG of Fab 5404
Kd [1]: 5.9 nM | koff [1]: 0.00094 s⁻¹ | kon [1]: 160000 M⁻¹ s⁻¹

B5: AG10081 (antibody, human IgG4 S228P, kappa, V domains shown)
VH: EVQLVESGGGLVQPGGSLRLSCAASGYSISSGHYWGWIRQAPGKGLEWLALIDWYGDKYYSTSLKSRLTISRDNSKNTLYLQLNSLRAEDTAVYYCARSDYYGSHFDYWGQGTLVTVSS
VL: DIQLTQSPSSLSASVGDRVTITCRASESVDFDGFSFLAWYQQKPGKAPKLLIYDASNLETGVPSRFSGSGSGTDFTLTISSLQPEDFATYYCQQYDTLPRTFGQGTKVEIKR
notes: also called IgG of Fab 5299
Kd [1]: 6.9 nM | koff [1]: 0.0017 s⁻¹ | kon [1]: 240000 M⁻¹ s⁻¹

B6: AG10079 (antibody, human IgG4 S228P, kappa, V domains shown)
VH: EVQLVESGGGLVQPGGSLRLSCAASGFSLSTGGVGVSWIRQAPGKGLEWVSSISGSGGTTYYADSVKGRFTISRDNSKNTLYLQLNSLRAEDTAVYYCARDDLYSWYFDVWGQGTLVTVSS
VL: DIQLTQSPSSLSASVGDRVTITCRASQGIGSSLAWYQQKPGKAPKLLIYAASSLQSGVPSRFSGSGSGTDFTLTISSLQPEDFATYYCQQGYYTWTFGQGTKVEIKR
notes: also called IgG of Fab 4074
Kd [1]: 1.4 nM | koff [1]: 0.00027 s⁻¹ | kon [1]: 190000 M⁻¹ s⁻¹

B7: AG10083 (antibody, human IgG4 S228P, kappa, V domains shown)
VH: EVQLVESGGGLVQPGGSLRLSCAASGFSLSTSGVGVGWIRQAPGKGLEWIGEIYHSGSTYYSPSLKSRVTISRDNSKNTLYLQLNSLKAEDTAVYYCAREGSDVVTGDWFAYWGQGTLVTVSS
VL: DIQLTQSPSSLSASVGDRVTITCRASQGISSVLAWYQQKPGKAPKLLIYDASSLESGVPSRFSGSGSGTDFTLTISSLQPEDFATYYCQQGYSLWTFGQGTKVEIKR
notes: also called IgG of Fab 5323
Kd [1]: 12 nM | koff [1]: 0.0069 s⁻¹ | kon [1]: 570000 M⁻¹ s⁻¹

B8: AG10082 (antibody, human IgG4 S228P, kappa, V domains shown)
VH: EVQLVESGGGLVQPGGSLRLSCAASGYTFSNYWIHWVRQAPGKGLEWVSYISGDGDTTYYADSVKGRFTISRDNSKNTLYLQLNSLRAEDTAVYYCAREGSTTVAGDWFAYWGQGTLVTVSS
VL: DIQLTQSPSSLSASVGDRVTITCRASQGIGSFLGWYQQKPGKAPKLLIYDASSLESGVPSRFSGSGSGTDFTLTISSLQPEDFATYYCQQYYSLVTFGQGTKVEIKR
notes: also called IgG of Fab 5300
Kd [1]: 13 nM | koff [1]: 0.0072 s⁻¹ | kon [1]: 560000 M⁻¹ s⁻¹

B9: AC1097 (antibody, V domains shown)
VH: EVQLVQSGAEVKKPGESLRISCKGSGYSFSTYWISWVRQMPGKGLEWMGKIYPGDSYTNYSPSFQGQVTISADKSISTAYLQWSSLKASDTAMYYCARGYGIFDYWGQGTLVTVSS
VL: SYELTQPPSVSVSPGQTASITCSGDNIGDQYAHWYQQKPGQSPVLVIYQDKNRPSGIPERFSGSNSGNTATLTISGTQAMDEADYYCATYTGFGSLAVFGGGTKLTVL
% in upper right quadrant [2]: 0.59% | Mean [2]: 16200 | binding result [3]: no binding | % in upper right quadrant (Hu_CRD3): 0.22% | Mean (Hu_CRD3): 12700 | % in upper right quadrant [4]: 0.005% | binding result [5]: no binding (tested: 100 nM (text paragraph 220)) | binding result [6]: no binding

B10: AG10129 (antibody, human IgG4 S228P, kappa, V domains shown)
VH: EVQLVESGGGLVQPGGSLRLSCAASGFTFSSYWIHWVRQAPGKGLEWVSVISGDGDTTYYADSVKGRFTISRDNSKNTLYLQLNSLRAEDTAVYYCARSRGLVLDAFDYWGQGTLVTVSS
VL: DIQLTQSPSSLSASVGDRVTITCRASQSVSGRFLAWYQQKPGKAPKLLIYDASSLESGVPSRFSGSGSGTDFTLTISSLQPEDFATYYCQQYDYWPPYTFGQGTKVEIKR
notes: also called IgG of Fab 5353
Kd [1]: 19 nM | koff [1]: 0.006 s⁻¹ | kon [1]: 310000 M⁻¹ s⁻¹
